Source: patent US20200148768A1

Target: T1, human BTN1A1-ECD-His6 (human), Q13410
T1 chain: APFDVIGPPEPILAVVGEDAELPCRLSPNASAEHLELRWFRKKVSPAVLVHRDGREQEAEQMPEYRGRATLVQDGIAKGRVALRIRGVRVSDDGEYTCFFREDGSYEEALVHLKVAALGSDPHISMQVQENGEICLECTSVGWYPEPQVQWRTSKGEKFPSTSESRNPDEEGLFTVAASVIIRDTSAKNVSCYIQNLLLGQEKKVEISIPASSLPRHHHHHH
Test: SPR (Biacore), antibody on mIgG capture chip, BTN1A1-ECD-His 2-64 nM
Conditions: remark: other sources report otherwise

Kd: 12.4 nM
B1: STC810 (antibody, V domains shown)
VH: EVQLQQSGPELVKPGASVKISCKASGYTFTHYNMDWVKQSHGKSLEWIGYIYPSNGGTGYNQKFKSRATLTVDKSSSTAYMELHSLTSEDSAVYYCARGAYHYGSSYAYWYFDVWGAGTTVTVSS
VL: DIQMTQTTSSLSASLGDRVTISCSASQDISNYLNWYQQKPDETVKLLISYTSSLHSGVPSRFSGSGSGTDYSLTISNLAPEDIATYYCQQSSKLPFTFGSGTELEIKRA
modifications: here or on the partner: N-glycosylated (PNGase F sensitive)
